Patent publication US20030190705A1 (SUNOL MOLECULAR, published 2003)

B1: chimeric anti-tissue factor antibody cH36 (antibody, human IgG4, V domains shown)
VH: EIQLQQSGPELVKPGASVQVSCKTSGYSFTDYNVYWVRQSHGKSLEWIGYIDPYNGITIYDQNFKGKATLTVDKSSTTAFMHLNSLTSDDSAVYFCARDVTTALDFWGQGTTLTVSS
VL: DIQMTQSPASQSASLGESVTITCLASQTIDTWLAWYQQKPGKSPQLLIYAATNLADGVPSRFSGSGSGTKFSFKISSLQAEDFVNYYCQQVYSSPFTFGAGTKLELK
B2: hOAT (humanized IgG One Anti-Tissue Factor antibody) (antibody, V domains shown)
VH: QIQLVQSGGEVKKPGASVRVSCKASGYSFTDYNVYWVRQSPGKGLEWIGYIDPYNGITIYDQNLKGKATLTVDKSTSTAYMELSSLRSEDTAVYFCARDVTTALDFWGQGTTVTVSS
VL: DIQMTQSPASLSASVGDRVTITCLASQTIDTWLAWYLQKPGKSPQLLIYAATNLADGVPSRFSGSGSGTDFSFTISSLQPEDFATYYCQQVYSSPFTFGQGTKLEIK
B3: hFAT (humanized IgG Four Anti-Tissue Factor antibody) (antibody, V domains shown)
VH: B2 VH
VL: B2 VL

Experiments:
[1] = target: T1, lipidated recombinant human tissue factor (e.g., Innovin) (human, UniProt P13726 33-295, limits assumed); assay: cell-based or functional assay
[2] = target: T1, lipidated recombinant human tissue …; assay: cell-based or functional assay; remark: listed apart in the source

Binder | PT Time (in seconds) at 12.9 nM anti-TF antibody [1] [s] | PT Time (in seconds) at 25.8 nM anti-TF antibody [1] [s] | PT Time (in seconds) at 51.6 nM anti-TF antibody [1] [s] | inhibition of TF function (PT assay) [2] [%]
B1 | 19.8 | 40 | 101 | ~95
B2 | 18.9 | 33.7 | 82.1 | ~95
B3 | 20.5 | 41.7 | 94.8 | ~95
